Literature values in patent US20230142365A1, “POLY(SARCOSINE) POLYMER EXCIPIENTS” (CALUSA BIO, LLC, priority 2021, published 2023).

Tested on: anti-drug antibodies (ADAs)
Conditions: share of anti-drug antibodies against the TNF blocker that are neutralizing; van Schie et al. 2015

Substance | ADAs neutralizing [%]
adalimumab | 97
infliximab: tumor necrosis factor (TNF) blocker Remicade (infliximab) | 90
